Reference: article PMC5716075, “Conserved asymmetry underpins homodimerization of Dicer-associated double-stranded RNA-binding proteins” (Nucleic Acids Research, 2017)

T1: full length (FL) PACT (protein activator of PKR) (human), O75569
T1 chain: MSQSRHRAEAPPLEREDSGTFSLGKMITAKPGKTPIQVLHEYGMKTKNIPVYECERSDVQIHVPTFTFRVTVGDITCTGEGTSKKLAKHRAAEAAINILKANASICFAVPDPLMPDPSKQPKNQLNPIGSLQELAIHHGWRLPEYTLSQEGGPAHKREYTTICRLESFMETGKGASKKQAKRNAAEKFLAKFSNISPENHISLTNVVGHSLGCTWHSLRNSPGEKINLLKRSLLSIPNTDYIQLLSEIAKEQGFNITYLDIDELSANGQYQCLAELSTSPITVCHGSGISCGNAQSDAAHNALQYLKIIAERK

B1: PACT-Ext-D3 (PACT residues 208-313, dsRBD 3 with the conserved N-terminal extension), wild type (domain or fragment, human, UniProt O75569 208-313, looked up)
chain: GHSLGCTWHSLRNSPGEKINLLKRSLLSIPNTDYIQLLSEIAKEQGFNITYLDIDELSANGQYQCLAELSTSPITVCHGSGISCGNAQSDAAHNALQYLKIIAERK
notes: also called WT PACT-Ext-D3; source: E. coli BL21 (DE3), purified (HisTrap, tag removed with 3C protease, Superdex S75); not shown: His6, N-terminal, cleaved; MBP, N-terminal, cleaved
B2: PACT-D3 (PACT residues 239-313, core dsRBD 3), wild type (domain or fragment, human, UniProt O75569 239-313, looked up)
chain: TDYIQLLSEIAKEQGFNITYLDIDELSANGQYQCLAELSTSPITVCHGSGISCGNAQSDAAHNALQYLKIIAERK
notes: Grown in M9 with 15N ammonium chloride (and 13C glucose for 3D NMR samples); also called WT PACT-D3; source: E. coli BL21 (DE3), purified (HisTrap, tag removed with 3C protease, Superdex S75); not shown: His6, N-terminal, cleaved; MBP, N-terminal, cleaved
B3: full length (FL) PACT (protein activator of PKR), O75569 1-313 (natural protein)
chain: MSQSRHRAEAPPLEREDSGTFSLGKMITAKPGKTPIQVLHEYGMKTKNIPVYECERSDVQIHVPTFTFRVTVGDITCTGEGTSKKLAKHRAAEAAINILKANASICFAVPDPLMPDPSKQPKNQLNPIGSLQELAIHHGWRLPEYTLSQEGGPAHKREYTTICRLESFMETGKGASKKQAKRNAAEKFLAKFSNISPENHISLTNVVGHSLGCTWHSLRNSPGEKINLLKRSLLSIPNTDYIQLLSEIAKEQGFNITYLDIDELSANGQYQCLAELSTSPITVCHGSGISCGNAQSDAAHNALQYLKIIAERK
B4: Loqs-D3 (Loquacious residues 392-463, dsRBD 3), wild type (domain or fragment, Drosophila, UniProt Q9VJY9 392-463, looked up)
chain: IDYIKLLGEIATENQFEVTYVDIEEKTFSGQFQCLVQLSTLPVGVCHGSGPTAADAQRHAAQNALEYLKIMT
notes: Loquacious (Loqs), Drosophila, residues 392-463 (dsRBD 3, Type B); also called WT Loqs-D3; source: E. coli BL21 (DE3), purified (GSTrap, tag removed with tobacco etch virus protease, size exclusion)
B5: R353H,R354N TRBP-Ext-D3 (PACT-like variant of TRBP-Ext-D3) (domain or fragment, human, UniProt Q15633 258-366, looked up)
chain: NRGPGCTWDSLRNSVGEKILSLRSCSLGSLGALGPACCRVLSELSEEQAFHVSYLDIEELSLSGLCQCLVELSTQPATVCHGSATTREAARGEAAHNALQYLKIMAGSK
notes: source: E. coli BL21 (DE3), purified (HisTrap, tag removed with 3C protease, Superdex S75); not shown: His6, N-terminal, cleaved; MBP, N-terminal, cleaved

Columns and labels:
[1] = target: the molecule itself; test: SEC-MALS; SEC-MALLS; Superdex S75 10/30 (except where otherwise noted), 20 mM MES pH 6.5, 200 mM NaCl, 1 mM dithiothreitol, 0.5 ml/minute; 100 μl of protein at 2–5 mg/ml injected
[2] = target: T1, full length (FL) PACT (protein …); test: as above; conditions: remark: other sources report otherwise

Binder | stoichiometry N [1] | stoichiometry N [2]
B1 | 2 | –
B2 | 2 | –
B3 | – | 2
B4 | 2 | –
B5 | 2 | –
